Assay results: US20080139790A1 (ARANA THERAPEUTICS, published 2008)

T1: rat MOG (myelin-oligodendrocyte glycoprotein) (rat, UniProt Q63345 28-245)
T1 construct: mature; Not a purified protein: identified by the band size of about 25 kDa in a western blot of rat spinal cord lysate; also called antigen of M26; protein of size 25 kDa
T1 sequence (looked up): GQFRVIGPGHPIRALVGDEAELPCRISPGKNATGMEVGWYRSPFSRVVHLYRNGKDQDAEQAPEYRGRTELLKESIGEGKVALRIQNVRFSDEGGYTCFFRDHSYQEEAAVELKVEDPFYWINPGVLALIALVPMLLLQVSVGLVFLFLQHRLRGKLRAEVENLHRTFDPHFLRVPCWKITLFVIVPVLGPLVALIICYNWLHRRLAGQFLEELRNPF


Target: T1, rat MOG (myelin-oligodendrocyte …)
Experiment: western blot of rat spinal cord lysate, AB138 at 10 ug/mL, anti-human IgG HRP
Procedure: The ability of AB138 to retain binding to the antigen of M26, rat MOG (myelin-oligodendrocyte glycoprotein), was investigated by Western Blot. 130 mg of rat spinal cord (IMVS, Australia) was homogenized in 1.8 ml CelLytic M Cell Lysis Reagent (SIGMA, C2978) and incubated for 30 minutes at 4° C. Further homogenization was performed by drawing the lysate through a 27 g1/2 needle several times followed by centrifugation at 4° C. and 13000 g for 30 minutes. The pellet and supernatant was diluted into SDS-PAGE sample buffer (125 mM Tris-HCl pH 6.8, 5% SDS, 0.25% bromophenol blue, 25% glycerol). Along with this 200 μl CHOK1SV cells at 1×10⁶ viable cells per ml were spun down at 13000×g at 4° C. for 1 minute and resuspended in 200 μl CelLytic M Cell Lysis Reagent (SIGMA). Following centrifugation at 4° C. and 13000×g for 30 minutes the supernatant was mixed with the appropriate amount of SDS-PAGE sample buffer. All samples, along with a sample of molecular weight markers, were run on a 4-20% Novex pre-cast gel (Invitrogen, Australia) for 2 hours at 120V. Proteins were then transferred to PVDF (BioRad, Australia) using a western blot apparatus in 1× Tris-Glycine Buffer with 20% methanol (BioRad, Cat 161+-0771) at 4° C. at 250 mA for 2 hours. […] Following washing, bound antibody was detected using the ECL Western Blotting Analysis System, (Amersham Biosciences Cat: RPN2109). […]

binding result | Binder
binds | AB138 (antibody, human IgG1, kappa, V domains shown, Expressed in CHOK1SV cells, purified on Protein A; also called marmoset human fusion antibody; MOG specific marmoset derived antibody variable regions with human IgG1 / kappa constant regions) VH: QVQLVQSGAEVKKPGASVKVSCKASGYTFTSYAISWARQPPGQGLEWMGAFDPEYGSTTYAQKFQGRVTMTADTSTSTAYMELSSLRPEDTAVYYCARDVNFGNYFDYWGQGTLVTVSS VL: ELVMTQSPATLSLSPGERATVSCRAGQSVSYYLAWYQQKPGQAPRLLIYGASTRATGIPARFSGSRSGTDFTLTISSLEPEDFAVYYCQQYSSWPPTFGQGTKLEIKR

Target: T2, TNF-α (Peprotech Cat No: 300-01A) (UniProt P01375 77-233)
T2 construct: Coated on the ELISA plate at 1 µg/mL
Experiment: ELISA, TNF-α coated at 1 µg/mL, detection with anti-HIS HRP
Procedure: TNF-α (Peprotech Cat No: 300-01A) was diluted to 1 μg/mL in carbonate coating buffer ([…] pH 9.6). 100 μL of this solution was added to a well of a 96 well plate and incubated at 4° C. overnight in a humidified container. The plate was then washed three times with wash buffer (0.01M PBS pH 7.2, 0.05% Tween-20) and then three times with 0.01M PBS pH 7.2. The wells were then blocked by adding 200 μL blocking buffer (1% w/v BSA in 0.01M PBS pH 7.2) to each well and incubating the plate at 25° C., in a humidified container, for 1 hour. Desalted domain antibody protein sample was diluted in antibody diluent (1% w/v BSA, 0.05% Tween-20 in 0.01M PBS pH 7.2) and added to the wells contain TNF-α and allowed to incubate for 1 hour at 25° C. The plate was then washed as previously described. 100 μL of Anti-HIS antibody HRP conjugate (Sigma-Aldrich, Australia Cat No: A7058) at 1:2000 in antibody diluent was used to detect bound domain antibody. Wells with antibody diluent only were used to assess background absorbance. After incubation at 25° C., in a humidified container, for 1 hour the plate washed again as previously described. 100 μL TMB substrate solution (Zymed, Cat No: 00-2023) was added to each well and the colour allowed to develop for 4 min. 100 μL of 1M HCl was added to terminate the colour development reaction and absorbance was determined at 450 nm (ref. 620 nm)

T2 sequence (P01375 77-233 limits assumed): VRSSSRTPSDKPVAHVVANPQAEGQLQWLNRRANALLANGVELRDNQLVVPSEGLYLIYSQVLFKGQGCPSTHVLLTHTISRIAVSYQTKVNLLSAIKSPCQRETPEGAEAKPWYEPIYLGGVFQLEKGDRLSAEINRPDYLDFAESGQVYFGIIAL

Binder | binding result
CDR2-substituted domain antibody SEQ ID No 26 (other, not shown: 6xHIS tag introduced by vector pBAD/gIII) DIQMTQSPSSLSASGDRVTITCRASQSIDSYLHWYQQKPGKAPKLLIYAASNRASGVPSRFSGSGSGTDFTLTISSLQPEDFATYYCQQVVWRPFTFGQGTKVEIKR | binds
CDR2-substituted domain antibody SEQ ID No 28 (other, not shown: 6xHIS tag introduced by vector pBAD/gIII) DIQMTQSPSSLSASGDRVTITCRASQSIDSYLHWYQQKPGKAPKLLIYYASFLQGGVPSRFSGSGSGTDFTLTISSLQPEDFATYYCQQVVWRPFTFGQGTKVEIKR | binds
CDR2-substituted domain antibody SEQ ID No 29 (other, not shown: 6xHIS tag introduced by vector pBAD/gIII) DIQMTQSPSSLSASGDRVTITCRASQSIDSYLHWYQQKPGKAPKLLIYRVSNRASGVPSRFSGSGSGTDFTLTISSLQPEDFATYYCQQVVWRPFTFGQGTKVEIKR | binds

The next lines start with the values.

binding result | Binder
binds | CDR2-substituted domain antibody SEQ ID No 31 (other, not shown: 6xHIS tag introduced by vector pBAD/gIII) DIQMTQSPSSLSASGDRVTITCRASQSIDSYLHWYQQKPGKAPKLLIYDASSLQPGVPSRFSGSGSGTDFTLTISSLQPEDFATYYCQQVVWRPFTFGQGTKVEIKR
binds | CDR2-substituted domain antibody SEQ ID No 25 (other, Secretory signal peptide from the vector, expressed in E. coli periplasm; not shown: 6xHIS tag introduced by vector pBAD/gIII) DIQMTQSPSSLSASGDRVTITCRASQSIDSYLHWYQQKPGKAPKLLIYKVSNRASGVPSRFSGSGSGTDFTLTISSLQPEDFATYYCQQVVWRPFTFGQGTKVEIKR
binds | unsubstituted acceptor anti-TNFα domain antibody (SEQ ID No: 7) (other, Single variable domain (domain antibody, dAb) from Basran et al. WO 2004/081026, CDR2 SASELQS; also called acceptor domain antibody; not shown: 6xHIS tag from vector pBAD/gIII (detection was by anti-HIS antibody); its positi) DIQMTQSPSSLSASGDRVTITCRASQSIDSYLHWYQQKPGKAPKLLIYSASELQSGVPSRFSGSGSGTDFTLTISSLQPEDFATYYCQQVVWRPFTFGQGTKVEIKR
